Data from patent US20220213203A1 (MacroGenics, published 2022).

Key:
[1] = target: CD123 as arrayed by human cells (human, UniProt P26951 19-378); test: cell-based or functional assay
[2] = target: Cynomolgus CD3ε/δ (cynomolgus monkey) (UniProt Q95LI5); test: kinetic binding analysis; method not given
Human CD3ε/δ (human) = Human CD3ε/δ (human) (UniProt P07766); test: kinetic binding analysis; method not given
Human CD3ε/δ (human), sequence (P07766 23-126, stated change not applied, chain 1 of 2): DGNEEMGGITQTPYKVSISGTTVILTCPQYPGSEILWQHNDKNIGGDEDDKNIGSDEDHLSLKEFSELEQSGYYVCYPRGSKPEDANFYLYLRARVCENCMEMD
Human CD3ε/δ (human), sequence (P04234 22-105, stated change not applied, chain 2 of 2, further chain): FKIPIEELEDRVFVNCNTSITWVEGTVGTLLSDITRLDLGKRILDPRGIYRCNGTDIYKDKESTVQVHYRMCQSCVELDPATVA

CD123 as arrayed by human cells, sequence (P26951 19-378): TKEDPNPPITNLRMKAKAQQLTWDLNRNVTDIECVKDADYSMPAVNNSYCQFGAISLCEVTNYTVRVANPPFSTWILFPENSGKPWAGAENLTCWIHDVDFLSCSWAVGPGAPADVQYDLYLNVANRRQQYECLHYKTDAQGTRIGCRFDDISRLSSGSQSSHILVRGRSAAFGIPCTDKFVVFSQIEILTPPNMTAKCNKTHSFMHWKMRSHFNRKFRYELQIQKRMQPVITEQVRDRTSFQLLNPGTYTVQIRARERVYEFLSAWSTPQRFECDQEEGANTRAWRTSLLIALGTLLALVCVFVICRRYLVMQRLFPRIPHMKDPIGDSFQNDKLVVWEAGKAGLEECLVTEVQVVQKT
Cynomolgus CD3ε/δ (cynomolgus monkey), sequence (Q95LI5 22-117, stated change not applied, chain 1 of 2): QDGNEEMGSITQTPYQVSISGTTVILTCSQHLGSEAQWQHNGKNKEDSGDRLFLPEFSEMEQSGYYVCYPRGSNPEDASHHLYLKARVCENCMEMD
Cynomolgus CD3ε/δ (cynomolgus monkey), sequence (Q95LI8 22-105, stated change not applied, chain 2 of 2, further chain): as the sequence (P04234 22-105, stated change not applied, chain 2 of 2, further chain) above, with I5V, N15K, I20V, S32T, D33N, I34N, T64A, S74N, V83L counted along it

B1: DART-A (bispecific antibody)
chain 1: QAVVTQEPSLTVSPGGTVTLTCRSSTGAVTTSNYANWVQQKPGQAPRGLIGGTNKRAPWTPARFSGSLLGGKAALTITGAQAEDEADYYCALWYSNLWVFGGGTKLTVLGGGGSGGGGEVQLVQSGAELKKPGASVKVSCKASGYTFTDYYMKWVRQAPGQGLEWIGDIIPSNGATFYNQKFKGRVTITVDKSTSTAYMELSSLRSEDTAVYYCARSHLLRASWFAYWGQGTLVTVSSGGCGGGEVAALEKEVAALEKEVAALEKEVAALEK
chain 2: DFVMTQSPDSLAVSLGERVTMSCKSSQSLLNSGNQKNYLTWYQQKPGQPPKLLIYWASTRESGVPDRFSGSGSGTDFTLTISSLQAEDVAVYYCQNDYSYPYTFGQGTKLEIKGGGSGGGGEVQLVESGGGLVQPGGSLRLSCAASGFTFSTYAMNWVRQAPGKGLEWVGRIRSKYNNYATYYADSVKDRFTISRDDSKNSLYLQMNSLKTEDTAVYYCVRHGNFGNSYVSWFAYWGQGTLVTVSSGGCGGGKVAALKEKVAALKEKVAALKEKVAALKE
B1 was tested, and the “EC50 of redirected killing, Kasumi-3 target cells, E:T = 10:1” value [1] was 0.01 ng/mL, the “EC50 of redirected killing, Molm13 target cells, E:T = 10:1” value [1] was 0.18 ng/mL and the “EC50 of redirected killing, RS4-11 target cells, E:T = 10:1” value [1] was 0.5 ng/mL. The “EC50 of redirected killing, TF-1 target cells, E:T = 10:1” value [1] was 0.46 ng/mL, the “EC50 of redirected killing, THP-1 target cells, E:T = 10:1” value [1] was 0.24 ng/mL and the Kd [2] was 9.2 nM. For the same binder, the koff [2] was 0.005 s⁻¹, the kon [2] was 550000 M⁻¹ s⁻¹ and the Kd (Human CD3ε/δ (human)) was 9 nM. It also gave a koff (Human CD3ε/δ (human)) of 0.005 s⁻¹ and a kon (Human CD3ε/δ (human)) of 570000 M⁻¹ s⁻¹.
